Results taken from article PMC12002099, “Recombinant Production and Characterization of Six Ene‐reductases from Penicillium steckii” (Chembiochem, 2025).

How the values were obtained:
[1] = tested on: O=C1C=CC(=O)C=C1; assay: steady-state kinetics, NADPH consumption, Michaelis-Menten fit; type: biochemical, Penicillium steckii; details: co-substrate NADPH
From the text: steady-state kinetics, NADPH consumption, Michaelis-Menten fit on PsOYE4

[2] = target: PsOYE2, Class III OYE-type ene-reductase from Penicillium steckii (Penicillium steckii); assay: SEC; PsOYE2 in solution; conditions not shown
[3] = target: PsOYE2, Class III OYE-type ene-reductase from Penicillium steckii (Penicillium steckii); assay: DLS; PsOYE2 in solution; conditions not shown
[4] = target: PsOYE2, Class III OYE-type ene-reductase from Penicillium steckii (Penicillium steckii); assay: crystal structure; PsOYE2 without any tag, FMN bound; monoclinic space group P2(1), four dimers in the asymmetric unit; 2.3 Å; interface analysed with PISA
[5] = substrate: NC(=O)C1=CN([C@@H]2O[C@H](COP(=O)(O)OP(=O)(O)OC[C@H]3O[C@@H](n4cnc5c(N)ncnc54)[C@H](OP(=O)(O)O)[C@@H]3O)[C@@H](O)[C@H]2O)C=CC1; assay: steady-state kinetics, NADPH consumption, Michaelis-Menten fit; type: biochemical, Penicillium steckii; details: co-substrate p-benzoquinone
From the text: (§1) steady-state kinetics, NADPH consumption, Michaelis-Menten fit on PsOYE5

[6] = substrate: O=C1C=CC(=O)C=C1; assay: as above; type: biochemical, Penicillium steckii; details: co-substrate NADPH; remark: listed apart in the source
From the text: as §1

[7] = substrate: NC(=O)C1=CN([C@@H]2O[C@H](COP(=O)(O)OP(=O)(O)OC[C@H]3O[C@@H](n4cnc5c(N)ncnc54)[C@H](OP(=O)(O)O)[C@@H]3O)[C@@H](O)[C@H]2O)C=CC1; assay: as above; type: biochemical, Penicillium steckii; details: co-substrate p-benzoquinone; remark: listed apart in the source
From the text: (§2) steady-state kinetics, NADPH consumption, Michaelis-Menten fit on PsOYE6

[8] = substrate: O=C1C=CC(=O)C=C1; assay: as above; type: biochemical, Penicillium steckii; details: co-substrate NADPH; remark: listed apart in the source
From the text: as §2

[9] = substrate: NC(=O)C1=CN([C@@H]2O[C@H](COP(=O)(O)OP(=O)(O)OC[C@H]3O[C@@H](n4cnc5c(N)ncnc54)[C@H](OP(=O)(O)O)[C@@H]3O)[C@@H](O)[C@H]2O)C=CC1; assay: as above; type: biochemical, Penicillium steckii; details: co-substrate p-benzoquinone; remark: listed apart in the source
From the text: (§3) steady-state kinetics, NADPH consumption, Michaelis-Menten fit on PsOYE1

[10] = substrate: O=C1C=CC(=O)C=C1; assay: as above; type: biochemical, Penicillium steckii; details: co-substrate NADPH; remark: listed apart in the source
From the text: as §3

[11] = substrate: NC(=O)C1=CN([C@@H]2O[C@H](COP(=O)(O)OP(=O)(O)OC[C@H]3O[C@@H](n4cnc5c(N)ncnc54)[C@H](OP(=O)(O)O)[C@@H]3O)[C@@H](O)[C@H]2O)C=CC1; assay: as above; type: biochemical, Penicillium steckii; details: co-substrate p-benzoquinone; remark: listed apart in the source
From the text: (§4) steady-state kinetics, NADPH consumption, Michaelis-Menten fit on PsOYE2

[12] = substrate: O=C1C=CC(=O)C=C1; assay: as above; type: biochemical, Penicillium steckii; details: co-substrate NADPH; remark: listed apart in the source
From the text: as §4

[13] = substrate: NC(=O)C1=CN([C@@H]2O[C@H](COP(=O)(O)OP(=O)(O)OC[C@H]3O[C@@H](n4cnc5c(N)ncnc54)[C@H](OP(=O)(O)O)[C@@H]3O)[C@@H](O)[C@H]2O)C=CC1; assay: as above; type: biochemical, Penicillium steckii; details: co-substrate p-benzoquinone; remark: listed apart in the source
From the text: (§5) steady-state kinetics, NADPH consumption, Michaelis-Menten fit on PsOYE3

[14] = substrate: O=C1C=CC(=O)C=C1; assay: as above; type: biochemical, Penicillium steckii; details: co-substrate NADPH; remark: listed apart in the source
From the text: as §5

## PsOYE4 (Penicillium steckii)
[1]
  Km: 1100 ± 100 µM
  kcat: 28 ± 1 s⁻¹
  kcat/Km: 26000 M⁻¹ s⁻¹

## PsOYE2, Class III OYE-type ene-reductase from Penicillium steckii (enzyme)
[2]
  stoichiometry N: 2
[3]
  stoichiometry N: 2
[4]
  stoichiometry N: 2

B1: PsOYE5 (Penicillium steckii) (protein)
chain: MSSSAATRFECADVDPSVLGQPLQFTFSGRSAPNRFLKGAMSERLASFSYSDLSARGIPSPTLIQAYKGWGESQIGINLTGNVMIDPGHLEAAGNPVIPRNAEFSGERFERFKELATAGKENGMLIIAQVGHPGRQTPQYLQPNPISASDVQVQGEPMGMKFAQPRAATHEDIANIIDGFAHAAEYLDKAGFDGIELHGAHGYLLSQFLSSATNLRTDQYGGDLKNRMRLILEVRDEIAKRVRKDFVVGIKINSVEFQDKGFQPDDAKELCRALEEHAFDFVELSGGTYEKSPFAEQKRPSTIERESLFLDFARLIVPGLTKTKTYVTGGFKTVEAMVKALETVDGVGLGRPLCQEPNLCAHILSGKVKGAIDQKIDMYNFGATAGAAGVQIQQMGNHLQPIDLSQEENVGKLFAALGPWLAARQKDVELYRSPAVADYVVPYSKTSML
[5]
  Km: 500 ± 200 µM
  kcat: 70 ± 14 s⁻¹
  kcat/Km: 150000 M⁻¹ s⁻¹
[6]
  Km: 900 ± 100 µM
  kcat: 23.2 ± 0.9 s⁻¹
  kcat/Km: 26000 M⁻¹ s⁻¹

B2: PsOYE6 (Penicillium steckii) (protein)
chain: MSSKLFNPMQVGRMQLSTRLAMAPMTRFRVDDDHNPLPIVKDYYAQRGSIPGTLLITEATIISPQAGGYKNVPGIYTDSQIAAWKEITDAVHAKGSYIYLQLWALGRVADPNYLRELGNYDLVSASDIPAGEGAPTPRPLSESDIQSFVKDYAQAAKNAVAAGFDGVEIHAANGYLIDQFIQDNSNQRNDSYGGSVENRARFALEVTQAVVDAIGADRTGIRYSPFSTFQGMRMADPIPQFSYLAKETAKFKLAFTHLVEPRIAGNADVEETPDELEFFLKEYGNATPVIIAGGYKAESAIQAVDEKYKEFDTVIGIGRPWTSNPDLPFRIKANVPLVPYDRDTFYNPKDPKGYIDWAFSPEFKATQVGA
[7]
  Km: 300 ± 100 µM
  kcat: 53 ± 7 s⁻¹
  kcat/Km: 170000 M⁻¹ s⁻¹
[8]
  Km: 1100 ± 100 µM
  kcat: 25.5 ± 0.9 s⁻¹
  kcat/Km: 23000 M⁻¹ s⁻¹

B3: PsOYE1 (Penicillium steckii) (protein)
chain: MTIQYISGEESGLFRPLTISNGSLTLRHRIIHAPLTRNRGVPANPISTPENPNRIWVPGDLIAEYYGQRATEGGLLISEGIPPSLESNGMPGVPGLFTPEQANGWKKVVDAVHAKGGFIFCQLWHAGRATIPQMTGSPAVCPSASVWDSPKECYSHPPVGSTEPVPYANHPPIELSVPHIKQTIQDYCNAAKTAMEIGFDGVEIHGGNGYLPEQFLSSNINKRTDDYGGSPEKRCKFVFELMDEVAKTIGEQNLSIRLSPFGLFNQARGEQRLETWTHLCEGLKKAHPALSYVSFVEPRFEQIFSEEEKDTFLQSWGLKDVTLDRFRKIFGETPFFSAGGFDDKNSWNIVESGKYDGLLFGRYFISNPDLVHRLAKGLPLAPYDRTRFYGPFEDNVFHYTDYPTIDKQ
[9]
  Km: 300 ± 100 µM
  kcat: 63 ± 8 s⁻¹
  kcat/Km: 200000 M⁻¹ s⁻¹
[10]
  Km: 700 ± 100 µM
  kcat: 23.4 ± 1 s⁻¹
  kcat/Km: 33000 M⁻¹ s⁻¹

B4: PsOYE2 (Penicillium steckii) (protein)
chain: MTWPDVPIAAAPGISYFTPAQSPPAGTARNPQTSGKAIPKLFQPLTIRGHTFQNRLGVAPMCQYSADDGHLTPWHMAHYGGIAQRGPGMIIIEATGVVPEGRITPGCVGLWKDSQIAPLKQVVEFAHSQGQKIGIQLAHAGRKASTVPPWLGGVTATNAVGGWTENVKGPSAIPFAEGEIVPKAMTKEDIEEVKTAWVAAVERAVAAGVDFIEIHNAHGYLLSSFLSPSSNQRTDDYGGSFENRIRLSLEISQLTRDTVGPNMPVFLRVSATDWLEKSMPEEKGWKLEDTVEFSRALAAQGAIDLIDISTGGVHAAQKVTSGVGFQVPFAKAVKEAVGQKMLVSAVGTINSGNLAEKILNEDDVDVILVGRAFQRDSGLAWAFAKDLDVEIAMAGQIRWGFTSFRNASEYIQPNSMKASIFD
[11]
  Km: 500 ± 100 µM
  kcat: 70 ± 10 s⁻¹
  kcat/Km: 140000 M⁻¹ s⁻¹
[12]
  Km: 2 ± 1 µM

B5: PsOYE3 (Penicillium steckii) (protein)
chain: MAQSNHPDIANKPAEGISYYTPAQVPPAGSAAIPQSDGAQPPKLFTPFQVRGVTFHNRIGLSPLCQYSADDGHMTDWHMAHLGGIAQRGPGFLMVEATAVQANGRITPQDHGLWKDSQIEPLRRVVEFIHSQNQVIGVQLAHAGRKASTVAPWLSSADTATEAVGGWPENVKGPSDIPFHDKFPVPKALTLNEIEQFKQDWVSALKRAVKAGADFVEIHNAHGYLLMSFLSPASNKRTDQYGGSFENRIRLTMEIAQLTRDNIPKDMPVFLRVSATDWLEEAMPNEPSWRIEDTVQLAKALADSGNIDVLDVSSGGNHRAQHIHAKAAFQAPFAIEVKKAVGDRLQVGSVGMIDSAQLASSLLENDGLDFVLVGRGFQKNPGLVWAWAEELDVEISMANQIRWGFSSRGGGVYLKKRHGKM
[13]
  Km: 200 ± 0 µM
  kcat: 64 ± 4 s⁻¹
  kcat/Km: 350000 M⁻¹ s⁻¹
[14]
  Km: 8 ± 1 µM
  kcat: 19.6 ± 1.3 s⁻¹
  kcat/Km: 2.45e+06 M⁻¹ s⁻¹
